The record followed here is patent publication US10646600B2, “HER2 polypeptides useful for imaging and monitoring tumors and cancers” (GE HEALTHCARE LIMITED, priority 2013, dated 2020).

Like-named read-outs stand apart in the source and are kept apart here.

Data set [1] concerns the target T1, human HER2 (Homo sapiens, UniProt P04626).
T1 construct: Human, rhesus and rat HER2-ECD-Fc (SINO Biological, Beijing, China, Cat. Nr: 10004-H02H, 90020-K02H, and 80079-R02H); Fc (C); purchased SINO Biological 10004-H02H
The data set can be described thus: Surface Plasmon Resonance, human HER2-ECD-Fc. The data set is classed as binding. As to the method:
To characterize the affinity of [^19F]GE-226[SEQ ID NO 1] to HER2 protein, Surface Plasmon Resonance studies were conducted. Human, rhesus and rat HER2-ECD-Fc (SINO Biological, Beijing, China, Cat. Nr: 10004-H02H, 90020-K02H, and 80079-R02H), as well as human HER2-ECD-Fc-6×His (R&D Systems, Minneapolis, Minn., Cat. Nr: 1129-ER) and p95HER2 ECD-Fc-6×His (Syngene, Cambridge, United Kingdom) were diluted with 50 mM sodium acetate pH 4.5 (Biacore (GE Healthcare, Buckinghamshire, UK) coupling buffer) to a final concentration of 10 μg/mL. Antigen coupling to Biacore sensor chip CMS (Cat. Nr: BR-1005-30) was done according to amine coupling protocol from the instrument manual (Syngene). HBS-EP buffer (10 mM HEPES pH 7.4, 150 mM NaCl, 3 mM EDTA and 0.005% surfactant P20; GE Healthcare, Little Chalfont, United Kingdom, Cat. Nr: BR-1006-69) was used as running buffer and as solvent for the substances. The affinity studies were performed using a Biacore T100 (GE Healthcare). [^19F]GE-226 was diluted in HBS-EP buffer to 50 nM, 25 nM, 12.5 nM, 6.25 nM, 3.125 nM, 1.56 nM, 0.78 nM, 0.39 nM, 0.195 nM, 0.097 nM, 0.049 nM and 0 nM. The flow cells of the first chip comprised of blank, human HER2-ECD-Fc-6×His, p95HER2-ECD-Fc-6×His batch I and p95HER2-ECD-Fc-6×His batch II. The flow cells on the second chip contained blank, human HER2-ECD-Fc, rhesus HER2-ECD-Fc and rat HER2 ECD-Fc. The immobilization of the proteins was validated with protein-A (Sigma-Aldrich, St. Louis, Mo., Cat. Nr: P6031) and anti-human IgG antibody (Perkin Elmer, Waltham, Mass., Cat. Nr: NEF803001EA). [^19F]GE-226[SEQ ID NO 1] was pumped in duplicate over cells in randomized order for 60 sec at 50 μL/min flow rate followed by 120 sec of HBS-EP to monitor dissociation. This was followed by regeneration of the chip with 50 mM sodium hydroxide for 30 sec at 30 μL/min flow rate followed by 60 sec run of HBS-EP to stabilize the surface. Kinetic calculations were performed using Langmuir 1:1 binding model and simultaneous calculation of association and dissociation phase.

Data set [2] has as its system MCF7-HER2 xenografts. The data set can be described thus: PET-CT imaging and kinetic modeling, MCF7-HER2 xenografts. In kind it is in vivo, mice. From the text: (§1) Mice were anesthetized through isoflurane inhalation and scanned on a dedicated small animal PET-CT scanner (Siemens Multimodality Inveon, Erlangen, Germany). Low dose CT scans were first acquired (80 kVp, 0.5 mA, 220 degree rotation, 600 ms per degree exposure time, 80 μm reconstruction pixel size) for PET attenuation correction and to obtain an anatomical reference. PET images were acquired following a bolus i.v. injection of approximately 3.7 MBq [^18F]GE-226 in the tail vein. Dynamic emission scans were acquired in list mode format over 60 minutes. The acquired data were sorted into 0.5-mm sinogram bins and 19 time frames for image reconstruction by filtered back projection (4×15 seconds and 4×60 seconds followed by 11×300 seconds). The Siemens Inveon Research Workplace software was used for visualization of radiotracer uptake. 30 to 60-minute cumulative images of the dynamic data were employed to define 3-dimensional (3D) regions of interest (ROI). […] The count densities were averaged for all ROIs at each time point to obtain time versus radioactivity curves (TAC). Tumor TACs were normalized to injected dose measured by a VDC-304 dose calibrator (Veenstra Instruments, Joure, Netherlands) and normalized uptake was expressed as percentage injected dose per mL tissue (NUV; % ID/mL). […]

Data set [3] has as its system MDA-MB-361 xenografts. Briefly: PET-CT imaging and kinetic modeling, MDA-MB-361 xenografts. The data set is classed as in vivo, mice.
From the text: as §1

Data set [4] concerns MCF7-HER2. Briefly: Biodistribution, MCF7-HER2 tumor. In kind it is in vivo, mice. The following applies: 60 min. The source says:
(§2) Mice were sacrificed at different time points by exsanguination.

For data set [5], the system named is MDA-MB-361. The data set can be described thus: Biodistribution, MDA-MB-361 tumor. In kind it is in vivo, mice. Particulars: 60 min.
From the text: as §2

The mark [6] stands for this setting: two-tissue irreversible compartmental model.

What is called Kd is the free concentration of one partner at which half of the binding sites on the other are occupied at equilibrium, for simple one-to-one binding. Turning to “[^18F]GE-226: HER2-binding 18F-radiolabelled Affibody molecule ZHER2:2891”, in data set [1] (human HER2, text, read-out: KD), the Kd was found to be 0.076 nM. The NUV60 came out at 10.9±1.5 % ID/mL in data set [2] (PET, 60 minutes) and 18.2±3.4 % ID/mL in data set [3] (PET, 60 minutes). In addition, the “Ki (net irreversible uptake rate)” value in data set [2] (setting [6]) is 0.015±0.0035 mL/cm^3/min; in data set [3] (setting [6]), 0.025±0.0052 mL/cm^3/min. The “Tissue uptake, MCF7-HER2” value in data set [4] was determined as 11.06 ± 3.31 % ID/g tissue. For the same substance, in data set [5], the “Tissue uptake, MDA-MB-361” value amounted to 17.00 ± 2.98 % ID/g tissue.

In data set [1] (Human HER2), “[^19F]GE-226: cold unlabeled non-radioactive 19F analogue of the tracer, used for SPR and blocking” displayed an Off-rate koff of 0.00131 s⁻¹ and an Rmax of 133.5. Moreover, the On-rate kon in data set [1] (Human HER2, Langmuir 1:1 binding model) stood at 1.73e+07 M⁻¹ s⁻¹. In data set [1] (Human HER2, fit statistic), the “Chi-Square χ^2” value is listed as 0.607 and the U-value was 3. Besides, the equilibrium dissociation constant (Kd) in data set [1] (Human HER2, read-out: Affinity KD) was determined as 0.0758 nM. The dissociation constant (Kd) in data set [1] (human HER2, text, read-out: KD) is 0.076 nM. Further, the “binding to human HER2 (words)” value in data set [1] (listed as GE-226) is “binds with high affinity”. Also, in data set [1] (listed as [^19F]-GE-226), the “binding to human HER2 (words)” value is “high affinity binding”.
